The DeepSol protein solubility set

Test: soluble on expression in E. coli; label from the status in PepcDB or PDB records

Sequence	soluble on expression in E. coli
MGLELRAIQSPIFSEPFDFTFHAQAFTLLVGSSGSGKSSLFQMIAQVSSLPYSGQVLIDGSEVSQLSIVERVQTVGILLQNPNHQFTMESLFEELVFTMENIGYHLQEIDSKIAEVVQQCRCKDILHRLIHHLSGGEKQKAALAVLFAMNPRVYLLDEPFASIDRKSRIEILEILKELVYDGKTVILCDHDLSDYKAYIDHMVELRDGKLREVFQIPSYEMTQVASKEVASSPELFHMNRVTGELGNRPLFSIADFTFYQGISCILGDNGVGKSTLFRSILQFQKYKGSITWKGSVLKKKKSLYRDLTGVVQEAEKQFIRVSLREELQLDGPDSERNQRIFQALRYFDLEQAVDKSPYQLSGGQQKILQLLTILTSKASVILLDEPFAGLDDRACHYFCKWIVEERNQGRSFLLISHRLDPLISVVDYWIEMTSQGLRHVKEVTITKPLTSQSSNTQGEVR	not soluble
SNQDEPRCLFVKDADSQVDLQITFRGFSRPDPQLAASRLLRRVLAGGGCSRLHLNLRERLGIVYSVDAQVAAYDETGCFSIELSTAPENLLTAVEEVLGETRKLAAEPVGAEELRRVRQGYFFDLAYSEDSTFEMQVRYGWGELMGMVKGIDEERAEVEAVDEGTLQAVARRLFAPAALNLVAVGPVTATAKRRIEQLLRRYAKEFPTSSQPPGP	not soluble
MTFRYRGPSPKGDQPKAIAGLVEALRDGERFVTLLGATGTGKTVTMAKVIEALGRPALVLAPNKILAAQLAAEFRELFPENAVEYFISYYDYYQPEAYVPGKDLYIEKDASINPEIERLRHSTTRSLLTRRDVIVVASVSAIYGLGDPREYRARNLVVERGKPYPREVLLERLLELGYQRNDIDLSPGRFRAKGEVLEIFPAYETEPIRVELFGDEVERISQVHPVTGERLRELPGFVLFPATHYLSPEGLEEILKEIEKELWERVRYFEERGEVLYAQRLKERTLYDLEMLRVMGTCPGVENYARYFTGKAPGEPPYTLLDYFPEDFLVFLDESHVTVPQLQGMYRGDYARKKTLVDYGFRLPSALDNRPLRFEEFLERVSQVVFVSATPGPFELAHSGRVVEQIIRPTGLLDPLVRVKPTENQILDLMEGIRERAARGERTLVTVLTVRMAEELTSFLVEHGIRARYLHHELDAFERQALIRDLRLGHYDCLVGINLLREGLDIPEVSLVAILDADKEGFLRSERSLIQTIGRAARNARGEVWLYADRVSEAMQRAIEETNRRRALQEAYNLEHGITPETVRKEVRAVIRPEGYEEAPLEADLSGEDLRERIAELELAMWQAAEALDFERAARLRDEIRALEARLQGVRAPEPVPGGRKRKRR	soluble
MEGDVLSGFGDRHNMDGKLLQSFQKSFVDVQDILDQNRLLINEINQNHESKQPDNLGRNVGLIKELNNNIRRVASLYGDLSHSFARSVDASSEGESSGTLKSDGKANQKRFRSGDGSLVPATDEEMLEVKNLLEKNEQDMPVLPDPIQTEEYIPDEGSPSQFLQLENFEGKTYCIHAKTDRISLGLHDKGIYWVTCNVGAINFTPPLKLLQSKEELMNGSQMLFVLPDTKFQISTELSGNVELVPSKVLLQEPILFSSNGCSINQSTDVLNATASPKEPALSTAASKPDFSRVPGEISLANLSIKELQETFRATFGRETTSKDKRWLKRRIKMGLINSCVVPTTTLTINDSKLIGGDQDAIDAFSKGTVDEETATESIDTPASPDGIKGHSNDFGHSPVETFVDHYSGNEDFEGEDGSAKRVRKPTRRYIEETNEKQQIDGSMIPSKDPSSIQAVSSEGRVVVTRMVSLAGSRIQVPYVSHVRRSRPRENIMALGEFRSKSWEVKAAPEEGNLNLSPPQLSNDVNRVPGVKSASRCVQKESDKDHLKPIFTDVDQEMMEPELLDSSGDSSDDNFVDAPITQSASGRKLHRAWTISEVEKLVEGVSKYGVGKWTEIKKLSFSPYTHRTTVDLKDKWRNLQKASSSNRMEGGLKKHGSMAIPTHIMLQVRELAQKQSPISRVVSKARVVKRSRSRNGFL	soluble
MRVLLVTGKLAEEMVRKYGKGADVKVYNIDIAAFITPSMLENEDFSGYDLVLVPGLTYSHNWEDFERRKGVKVRLGPIHAYDLQHVLKLIGKVEFSHKIPACRLVESLRAEETLREIDALDEDCAFEIGGVKVGGSSRMKVVAEIASFCDFDDLRAKIDHYTESGADIIDIGVPLEFDKEWLHKTLKIAVDHSKLPLSIDTFSSKAIEIAVKHGVDMVMSISMDNLKALDLIENQAVVVVERDIDGLLNLVERVGEKVERVIADPILDPPLKVAESIGRYAEFRRRDEKTPLLFGAGNVTELSDADSIGINALLAFIAEELKCNLLFTTEASPKTFGSVRELNIASYLAKAAKIRNSPPKDAGVSLLALKEKVRYEERVELDDFVRAEETREFVRDPLGDFIIQVVDGKIVCKHDRMTIVGEKAKEVADTAIKNNLLSRLDHAAYLGRELMKAEIAALLKKSYIQDRELNFGFYQK	not soluble
MKVEILPFGNMDQWVTREIKESGIIGGNTKKVYAIGPTETIVGAKPYANKGGSPWGTSNVMARVSGITKTNTSVFPETRGDGFCARLDTRMESVKVLGIVDITVLAAGSMFLGTVHEPIKSTKNPNKMLQMGIPFTDRPSAIQFDYKVKMSDRENRIRATGFSKITDVPGKDFPAVILLLQKRWEDAKGNVYAKRIGTMVNYYYHSTDWKNGSKYDIMYGDITKDPAYKAHMMRLQASEYFTVNSKGESVPIHEVAWGEADDVPTHMILQFTSSHGGAYIGSPGNSLYIDNVKLIYLEHHHHHH	soluble
MKIRDLLKARRGPLFSFEFFPPKDPEGEEALFRTLEELKAFRPAFVSITYGAMGSTRERSVAWAQRIQSLGLNPLAHLTVAGQSRKEVAEVLHRFVESGVENLLALRGDPPRGERVFRPHPEGFRYAAELVALIRERYGDRVSVGGAAYPEGHPESESLEADLRHFKAKVEAGLDFAITQLFFNNAHYFGFLERARRAGIGIPILPGIMPVTSYRQLRRFTEVCGASIPGPLLAKLERHQDDPKAVLEIGVEHAVRQVAELLEAGVEGVHFYTLNKSPATRMVLERLGLRPASGQP	soluble
MMKKPLLVLTALSLSLSAILSPLPATAALPLSVNGEQIPSLAPMLEKVTPAVVSIAVEGTQVSRQRLPDQFRFFFGPDFPTEQLQERPFRGLGSGVIINADKGYVVTNYHVINGAEKIRVKLYDGREFDAELVGGDEMSDVALLKLNKAKNLTEIRIADSDKLRVGDFAVAIGNPFGLGQTVTSGIVSALGRSGLNIENFENFIQTDAAINSGNSGGALVNLNGELIGINTAILGPNGGNVGIGFAIPSNMMKNLTDQILEFGEVKRGMLGVQGGEITSELADALGYESSKGAFVSQVVPDSAADKAGIKAGDIITSLNGKKIDTFSELRAKVATLGAGKTITLGVLRDGKNQNIDVTLGEQQNAKTKAESLHQGLSGAELSNTTDSDPIQGVKVTEVQKGSAAESYQLQKDDIIIGVNRKRVKNIAELRAIMEKSPNILALNIQRGERTLYLVVR	not soluble
MIKLDMTMLDSFKEDPNLRKLLFSGHFGLEKENIRVTSDGKLALTPHPAIFGPKEDNPYIKTDFSESQIEMITPVTDSIDSVYEWLENLHNIVSLRSENELLWPSSNPPILPAEEDIPIAEYKTPDSPDRKYREHLAKGYGKKIQLLSGIHYNFSFPEALIDGLYANISLPEESKQDFKNRLYLKVAKYFMKNRWLLIYLTGASPVYLADFSKTKHEESLPDGSSALRDGISLRNSNAGYKNKEALFVDYNSFDAYISSISNYIEAGKIESMREFYNPIRLKNAHTDQTVESLAEHGVEYLEIRSIDLNPLEPNGISKDELDFIHLFLIKGLLSEDRELCANNQQLADENENNIALNGLAQPSIKNCDNEDIPLADAGLLELDKMSDFIKSLRPEDTKLRAIIEKQKERLLHPEKTIAAQVKQQVTKEGYVDFHLNQAKTYMEETEALAYKLIGAEDMELSTQIIWKDAIARGIKVDVLDRAENFLRFQKGDHIEYVKQASKTSKDNYVSVLMMENKVVTKLVLAEHDIRVPFGDSFSDQALALEAFSLFEDKQIVVKPKSTNYGWGISIFKNKFTLEDYQEALNIAFSYDSSVIIEEFIPGDEFRFLVINDKVEAVLKRVPANVTGDGIHTVRELVEEKNTDPLRGTDHLKPLEKIRTGPEETLMLSMQNLSWDSIPKAEEIIYLRENSNVSTGGDSIDYTEEMDDYFKEIAIRATQVLDAKICGVDIIVPRETIDRDKHAIIELNFNPAMHMHCFPYQGEQKKIGDKILDFLFD	soluble
MAHHHHHHMPAHRRYSSVSSSSSRAFSEPSDGGTSSVNDSNSYYSEGSGSYRSVSSVLASRSGAKTTAATTASSTSAVDSSSTNTFSDVLTTSSAYSHSSAPPRRAVTRPAASRSEAVGHKTTKGASGVVVADHNNTGVGETLAQRTASTFTAPTTASSVTVDGTDGLVRAPQSLMLQAALAPVSNRTANVARVKPCNVSEEELVHHPWAPVDCDTTVDASKEGGDRGGLALNVLDTIHTVPIAVPLPPEEAPRRREEGSPTYPSRLAFRVVPSSSPLRHSDSAVTEDKDGTGNGGGGAALGADGATAPRARKTSIACCCCCCLHGCGEKAPCNTKRYTATRQKPHHPLRSHHVPLVSFRTTREHGIPMEGVQNVLPSVEEAARYQNLKVDMMGTEEFPKLMRKAIQPRDRLAGGLRLEKSYAFGHGAGGGRGGAGQSAFVRDGDPQGFWIAHLHRCAIVRLEPIGAE	not soluble
NLYHTPIFSVDREYEWLEKRHDKMLFAFDIPIHLTRRVLLVAGEAHTGGTMEAFTRYLRSIGVGEIKTCVFYKQSICTQHIDFWGMEGENTILMPWQNAQSIRDSLSKAQANQLKKIQRQRDC	not soluble
MGSDKIHHHHHHMNADDIRAMIQPAQVHRDVYISDAVYRLEMRHLFTNAWIFVGHDSQTPNKGDYITTQVGDQPVIMVRHTDGEVKVLYNRCPHKGTKIAIDRAGNTGKFFRCPYHAWSFKTDGCLLAIPLKKGYEGTGLSESQNGKGMQAVGAVYNYRGFVFARLAEDGIGFDEFFGGSLSSIDNMVDRAPEGRVEISGPPLRYMHKCNWKMLVENQTDTCHPMVAHESSAGTAVKIYEQMGNPEPRPPAMQIIAPFMSPYEFFEDMGIRTWPNGHGHTGVNMSIHSNYDAIPGYFEAMIESHGEERAKAILDESRHNTVYFPNVMVKAPLTQLRNFIPLGADRTLAESYVYRLVGAPEQLTAMSAMYNRMINAPTSIVGHDDLEMYERAQEGLHAEGMQWVDIRRLHTGPENFETEAVENGTTERQMRNQFHAWAKFMTMSMEDAPGVAAQ	not soluble
MGSDKIHHHHHHMMENSLNIIEKMNPNQKINYDRVFQKVRESWERDSVRPKILLHSCCAPCSTYSLEYLTQSADVTIYFANSNIHPSTEYTRRKMVQEQFVKDFNERTGNNVQFIAAEYEPNVFLQMVRQKHLENEPEGGKRCTSCFEMRLDIVAEKALELGFDYFGSALTLSPKKNSQLINEIGLDIQKIYDVNYLPSDFKKNNGYKRSVEMCKEYDVYRQCYCGCIFAAKAQGIDLKEQNREAIKFIRNQS	not soluble
MSLKARFLLLAALLSGVAGAYTVKKGDTLYSLARGSGLTVDALMRLNGLSTPELRVGQVIKLPGEGAATPATPAPAAPTPATPAPAAPAPAPAVPTKLPTVATAANVLKLPGVTITAPKALKMGDGFALRLSGEQAANVTVRFPSELGEDVRQPNEELRPLWSSGQYIVPGRVVLGKTTPVIYEVRLGGDVVRGQIPVGDLGQRVQHLNLPPSISKVLQDPAREAEDAAVEQAYQRRTPQQWQQPFASALASGKATSSSFGQPRTYVAGGKVAYHYGTDYPARSGTAVLAINDGTVVIAGRYPVRGGLVVIDHGAGVVSLYFHQSKVTAKVGQQIKRGQKVGEVGSTGLSAGPHLHLEVRVRGEGTNPAGWMGKLWPEGHHHHHH	not soluble
MPSSIYRYETIQVAGRGAFGLVVIARDTLTSKRVAIKRIMVPNVSKVSLAREISCLRNLHHRNILKLLDCFPSADLMSIVTEEVPYTLGDIIKDKTRPKTEQFNRWYYTQILSGIAYLHSKEIMHRDIKPENILVTSRNVVKIADFGQACFYMPKDPNQEYDVNVATRWYRAPELLFGSKKYKPDVDIWAIGCILAELVRGKPIFPGRSELEQISIIFGVLGTPNEDNWPNWRTMPDANKLLFEPKEPRNNWTEILLCKEISNNFTEFLGSHLQFFKRLKASELLKEPWIKQGLPLVEPNYRISKKSTRRNQRDALPPLHVFL	not soluble
